Reference: publication PMC3189933, “Acylpeptide Hydrolase Inhibition as Targeted Strategy to Induce Proteasomal Down-Regulation” (PLoS ONE, 2011)

Experiments:
[1] = molecular target: T1, Porcine liver acylpeptide hydrolase (porcine, UniProt P19205 1-732); assay: enzyme inhibition kinetics (Lineweaver-Burk); porcine APEH (0.5 nM in the legend; 3-5 nM in the methods) pre-incubated with 100 or 150 µM SsCEI 4 for 30 min at 37°C, 50 mM Tris-HCl pH 7.5, substrate acetyl-Ala-pNA; competitive inhibition; conditions: both partners purified
T1 construct: acylpeptide hydrolase (acylaminoacyl peptidase, oxidised protein hydrolase) from porcine liver; also called porcine APEH; APEH; source: bought: Takara (porcine liver APEH)
T1 sequence (looked up): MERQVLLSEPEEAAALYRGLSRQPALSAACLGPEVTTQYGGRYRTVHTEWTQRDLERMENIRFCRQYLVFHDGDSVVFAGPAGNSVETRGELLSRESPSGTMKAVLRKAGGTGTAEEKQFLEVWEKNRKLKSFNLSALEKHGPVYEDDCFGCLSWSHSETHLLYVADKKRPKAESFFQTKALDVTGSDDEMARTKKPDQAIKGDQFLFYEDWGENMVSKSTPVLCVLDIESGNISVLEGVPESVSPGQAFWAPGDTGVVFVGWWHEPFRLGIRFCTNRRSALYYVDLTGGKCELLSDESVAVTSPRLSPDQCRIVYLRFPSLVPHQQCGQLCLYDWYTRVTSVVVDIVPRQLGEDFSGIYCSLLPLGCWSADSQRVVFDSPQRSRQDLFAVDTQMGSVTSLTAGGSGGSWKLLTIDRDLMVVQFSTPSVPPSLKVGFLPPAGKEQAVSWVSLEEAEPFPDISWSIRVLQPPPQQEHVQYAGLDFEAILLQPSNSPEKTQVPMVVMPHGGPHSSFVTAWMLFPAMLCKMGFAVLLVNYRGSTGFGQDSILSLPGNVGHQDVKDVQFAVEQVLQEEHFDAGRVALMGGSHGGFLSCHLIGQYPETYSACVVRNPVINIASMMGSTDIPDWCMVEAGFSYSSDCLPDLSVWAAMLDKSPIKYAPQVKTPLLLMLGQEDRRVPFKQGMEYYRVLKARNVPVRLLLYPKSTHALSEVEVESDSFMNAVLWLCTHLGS

[2] = molecular target: T1, Porcine liver acylpeptide hydrolase; assay: cell-based or functional assay
Bovine α-chymotrypsin = Bovine α-chymotrypsin (bovine); assay: cell-based or functional assay

| Binder | Ki [1] [µM] | IC50 of inhibition of porcine APEH activity (substrate Ac-Ala-pNA) [2] [µM] | IC50 of inhibition of bovine α-chymotrypsin activity (Bovine α-chymotrypsin) [µM] |
| --- | --- | --- | --- |
| H-TILAEIKNINAD-NH2 (As SsCEI 2 with Ala at P1; also called S4; source: synthetic peptide (solid-phase Fmoc/tBu synthesis, purified by reverse-phase HPLC)) [SsCEI 4] | 4 | 84 | – |
| H-TILLEIKNINAD-NH2 [SsCEI 2] | – | 142 | 21.9 |
